Measurements from patent US20230357323A1 (University of Washington, published 2023).
Where a chain is given by its changes, count along the chain named. No end group written: not given here.

T1: human IL-23 cytokine (p19/p40 heterodimer) (human, UniProt Q9NPF7 20-189; P29460 23-328)
T1 construct: recombinant human IL-23 (R&D 1290-IL) is named for the cell assay; also called native ligand
T1 sequence (looked up) 1: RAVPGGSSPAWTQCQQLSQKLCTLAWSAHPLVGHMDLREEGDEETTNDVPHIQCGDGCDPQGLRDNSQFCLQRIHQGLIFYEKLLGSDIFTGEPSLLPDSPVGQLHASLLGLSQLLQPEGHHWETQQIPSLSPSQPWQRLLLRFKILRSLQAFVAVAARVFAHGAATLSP
T1 sequence (looked up) 2: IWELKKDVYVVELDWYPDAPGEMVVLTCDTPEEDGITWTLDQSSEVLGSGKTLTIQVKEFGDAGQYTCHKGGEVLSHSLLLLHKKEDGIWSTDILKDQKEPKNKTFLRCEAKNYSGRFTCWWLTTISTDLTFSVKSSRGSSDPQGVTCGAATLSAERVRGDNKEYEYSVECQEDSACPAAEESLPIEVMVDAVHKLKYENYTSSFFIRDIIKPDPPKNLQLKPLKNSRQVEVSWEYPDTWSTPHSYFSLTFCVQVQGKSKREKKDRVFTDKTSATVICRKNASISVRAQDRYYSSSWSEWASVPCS

B1: B0402SD (designed binder)
chain: PLWQIFYLLNTCIKRTGDPTCKKLIKALRECLKKGDPKACAELADKAMKYIMS
B2: B0402SG (designed binder)
chain: B1 chain with P1E, D45K
B3: B0402SE (designed binder)
chain: B1 chain with P1Q, I25K, P37A, A41K, L43A, M48V
B4: B0402SF (designed binder)
chain: B1 chain with P1E, P37A, A41S
B5: B0402IE (designed binder)
chain: NLWYIFYLLNTCIKRTCDPTCKVLAKALRECLKKGDLKACSELADKAVDYIRS
B6: B0402IC (designed binder)
chain: PLWQIFYLLNTCIKRTGDPTCKVLSKALRECLKKGDVKACSELASKAEKYINS
B7: human IL-23R (hIL-23R), custom construct with C-terminal avi and his tags, biotinylated (receptor, UniProt Q5VWK5 24-355, looked up, not shown: small tags and cut ends)
chain: GITNINCSGHIWVEPATIFKMGMNISIYCQAAIKNCQPRKLHFYKNGIKERFQITRINKTTARLWYKNFLEPHASMYCTAECPKHFQETLICGKDISSGYPPDIPDEVTCVIYEYSGNMTCTWNAGKLTYIDTKYVVHVKSLETEEEQQYLTSSYINISTDSLQGGKKYLVWVQAANALGMEESKQLQIHLDDIVIPSAAVISRAETINATVPKTIIYWDSQTTIEKVSCEMRYKATTNQTWNVKEFDTNFTYVQQSEFYLEPNIKYVFQVRCQETGKRYWQPWSSLFFHKTPETVPQVTSKAFQHDTWNSGLTVASISTGHLTSDNRGDIG
modifications: enzymatically biotinylated via the avi-tag
notes: immobilized on streptavidin tips in BLI, labeled target in FACS; also called human IL-23 receptor
B8: rA11dslf02_M1P_R8Q_K35W (designed binder)
chain: PEPEKYLQELCKKYYEGKLSQQEAVEEIRKYARKWGLEAWKLVWYFMQCVKRDIHHHHHH
B9: B08 (designed binder)
chain: NLWQIFYVLNTIYKRTGDPTAKKLNKALREALKKHDEKATKELAKKATKYIRS
B10: 23R_B (designed binder)
chain: NLWQIFYQLSTILKRTGDPTAKKLLKALAEALKKGDEKALKELAKKATKYIRSHHHHHH
notes: purified from E. coli for BLI
B11: B0402IA (designed binder)
chain: PLWQVFYLLNTCIKRTGDPTCKKLAKALRECLKPGDVKACKEVADKAMDYIRS
B12: B04dslf02IB (designed binder)
chain: PLWQVFYLLNTCIKRTGDPTCKKLAKALRECLKKGDLKACNELADKAVKYINSHHHHHH
notes: purified form with C-terminal tag; also called B0402IB; BO4dslf02IB
B13: 23R_mini_17_C11 (designed binder)
chain: CKVKCGPVEFEATERWMCFYWYNKYC
modifications: not fully specified (bridges); cysteine pairing not given here
B14: 23R_A (designed binder)
chain: MESEKYLRELVKKYYEGKLSVQEAVEEVRKYARKKGLEAWMLTWMFMELVKRYIHHHHHH
notes: purified from E. coli for BLI
B15: 23R_mini_14_C4 (designed binder)
chain: CRVCKNGFCVDARECWMAYYLLNQYN
modifications: not fully specified (bridges); cysteine pairing not given here
B16: 23R_mini_08 (designed binder)
chain: ASPELKETCERLERLGMERWLILWCKQRAEEG
B17: B0402ID (designed binder)
chain: ELWQVFYLLNTCIKRTCDPTCKKLAKALRECLKKGDLKACKEDAYKALDYIRS

Legend:
[1] = target: B7; assay: yeast display FACS, SIF incubation then labeled hIL-23R, 5-7 rounds
Protocol: Yeast libraries were first incubated in SIF at 30C, then washed thoroughly and incubated with labeled hIL-23R, and cells retaining the highest binding signal (top 1-5%) were collected by FACS. Two rounds of selection were performed for each library, and the SIF incubation time and/or concentration of proteases were increased from first to second round. […] Indeed in several libraries we saw a large population of Myc-negative, binding-positive cells. In parallel, we performed two rounds of selection for binding to hIL-23R only, without pre-incubation in SIF. […] Best mutations were included in combinatorial libraries, sorted as above for 5-7 rounds after which individual clones were sequenced. Variants present in the final sorts were expressed in E. coli and characterized (SEQ ID NOS: 70-74 and 153-164).
Yeast strain EBY100 was transformed with each library and vector by electroporation and grow in minimal media selective for the yeast strain (-ura) and the transforming plasmid (-trp).²⁷ Expression was induced with 2% galactose. Surface expression was detected with anti-Myc-FITC (Immunology Consultants Laboratory) conjugate, and binding to biotinylated IL-23R was detected with streptavidin-PE (Invitrogen).
SIF SSM and combinatorial libraries were prepared as follows: after 16-24 hours induction, yeast were spun down, washed with PBSF, resuspended in SIF (recipe described below) at an OD of 2.0, and incubated at 30° C. shaking for 30-90 minutes as noted. After SIF digest, cells were spun down and washed 4 times with 800 uL PBSF, manually aspirating the supernatant each time to ensure complete washing to remove proteases. SIF-treated cells were then treated with target protein as described above.

[2] = target: T1, human IL-23 cytokine (p19/p40 …); assay: method not stated here (FIG. 2E lists constants of the native ligand)
[3] = target: T1, human IL-23 cytokine (p19/p40 …); assay: table of binding constants on hIL-23R; biolayer interferometry per paragraph 183 and paragraph 210, method not stated separately for this row
Protocol: (§1) Variants were first screened for relative binding to hIL-23R with biolayer interferometry (BLI). hIL-23R was immobilized on the BLI sensor tips and binding to each variant in solution at a constant concentration (50 nM) was measured to qualitatively determine relative performance of the variants. For the best-performing variants, binding constants (KD, including kₒₙ, and koff) were quantitatively determined with BLI titration experiments in triplicate.
(§2) Qualitative and quantitative assessment of binding affinity was performed using biolayer interferometry (ForteBio Octet™ […] and associated software for analysis). Enzymatically biotinylated target protein (30 nM) was immobilized on streptavidin-coated sensor tips, then sequentially dipped in wells with: buffer only (baseline), inhibitor in solution (association), and buffer only (dissociation). Kinetic constants were determined from the mathematical fit of a 1:1 binding model.

[4] = target: B7; assay: SPR
[5] = target: B7; assay: biolayer interferometry titration, biotinylated hIL-23R immobilised on streptavidin tips
Protocol: as §1, §2

[6] = target: B7; assay: biolayer interferometry titration, biotinylated hIL-23R immobilised on streptavidin tips, 1:1 fit
Protocol: as §1, §2

[7] = target: B7; assay: BLI titration, biotinylated hIL-23R on streptavidin tips
Protocol: as §2

[8] = target: IL-23R on IL-23 reporter cells (Promega IL-23 Bioassay); assay: cell-based or functional assay
Chain of IL-23R on IL-23 reporter cells (Promega IL-23 Bioassay) (Q5VWK5 whole entry): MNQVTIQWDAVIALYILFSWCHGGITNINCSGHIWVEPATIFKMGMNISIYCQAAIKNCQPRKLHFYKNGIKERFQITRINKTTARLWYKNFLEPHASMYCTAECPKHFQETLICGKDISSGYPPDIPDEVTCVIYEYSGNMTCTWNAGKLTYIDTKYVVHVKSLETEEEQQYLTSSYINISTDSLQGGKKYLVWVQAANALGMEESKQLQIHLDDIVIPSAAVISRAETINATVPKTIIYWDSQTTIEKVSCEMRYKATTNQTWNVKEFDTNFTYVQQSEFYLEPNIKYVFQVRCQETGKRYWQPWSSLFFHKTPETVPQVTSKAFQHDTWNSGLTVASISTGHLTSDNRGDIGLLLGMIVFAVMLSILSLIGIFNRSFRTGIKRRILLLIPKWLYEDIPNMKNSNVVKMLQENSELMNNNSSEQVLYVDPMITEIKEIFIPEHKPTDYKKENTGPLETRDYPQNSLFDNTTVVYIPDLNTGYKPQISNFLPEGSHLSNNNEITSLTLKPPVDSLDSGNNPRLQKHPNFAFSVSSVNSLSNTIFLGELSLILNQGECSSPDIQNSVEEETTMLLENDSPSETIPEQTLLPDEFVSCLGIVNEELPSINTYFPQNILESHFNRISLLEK

[9] = target: IL-23R on IL-23 reporter cells (Promega IL-23 Bioassay); assay: cell-based or functional assay; remark: listed apart in the source
[10] = target: B7; assay: yeast display FACS

Q: Does B1 bind [1]?
A: Result: binds

Q: Does B2 bind [1]?
A: Result: binds

Q: Does B3 bind [1]?
A: Result: binds

Q: Does B4 bind [1]?
A: Result: binds

Q: Does B5 bind [1]?
A: Result: binds

Q: Does B6 bind [1]?
A: Result: binds

Q: What does the source list for B7?
A: Kd [2]: 1.7 nM; Kd [3]: 1.69 nM; koff [3]: 0.0013 s⁻¹; kon [3]: 780000 M⁻¹ s⁻¹

Q: B8 was tested. Which Kd [4] did it give?
A: The Kd was 0.075 nM.

Q: What does the source list for B9?
A: Kd [5]: 0.046 nM; Kd [6]: 0.046 nM; koff [6]: 4.6e-05 s⁻¹; kon [6]: 990000 M⁻¹ s⁻¹

Q: B10 was tested. Which Kd [6] did it give?
A: The Kd was 50 nM.

Q: And the koff [6]?
A: The koff was 0.015 s⁻¹.

Q: And the kon [6]?
A: Its kon is 500000 M⁻¹ s⁻¹.

Q: And the Kd [7]?
A: Its Kd is 70 nM.

Q: Does B11 bind [1]?
A: Result: binds

Q: B12 was tested. Which Kd [4] did it give?
A: Its Kd is < 0.001 nM.

Q: And the “Fold better than competitor (IC50 against that of PTG compound C, IL-23 reporter cell assay) [table]” value [8]?
A: The value was 484 fold.

Q: And the “IC50; inhibition of luciferase signal of IL-23 reporter cells stimulated with 8 ng/mL human IL-23 [table]” value [8]?
A: Its value is 16 nM.

Q: And the “IC50 (read off the curve); IL-23-stimulated luciferase signal in IL-23 reporter cells [lower graph]” value [9]?
A: The value was ~40 nM.

Q: B13 was tested. Which “Fold better than competitor (IC50 against that of PTG compound C, IL-23 reporter cell assay) [table]” value [8] did it give?
A: The value was 27 fold.

Q: And the “IC50; inhibition of luciferase signal of IL-23 reporter cells stimulated with 8 ng/mL human IL-23 [table]” value [8]?
A: Its value is 281 nM.

Q: For B14, which koff [6] is on record?
A: Its koff is 0.014 s⁻¹.

Q: And the kon [6]?
A: Its kon is 560000 M⁻¹ s⁻¹.

Q: What about the Kd [7] of the same binder?
A: Its Kd is 26 nM.

Q: What does the source list for B15?
A: Fold better than competitor (IC50 against that of PTG compound C, IL-23 reporter cell assay) [table] [8]: 16 fold; IC50; inhibition of luciferase signal of IL-23 reporter cells stimulated with 8 ng/mL human IL-23 [table] [8]: 487 nM

Q: Does B16 bind [10]?
A: Result: binds

Q: Does B17 bind [1]?
A: Result: binds
